Publication doi:10.1101/581934

B1: Mutated MARs DNA 16mer (dsDNA)
DNA 1: GCCCTGGTGTAGTGGC
DNA 2: GCCACTACACCAGGGC
B2: MARs DNA 16mer (dsDNA)
DNA 1: GTGCAGGTGTCCTTAA
DNA 2: TTAAGGACACCTGCAC

Biological target: MeCP2-MBD WT (Homo sapiens, UniProt P51608 80-164)
Assay: ITC

Sequence of MeCP2-MBD WT (P51608 80-164): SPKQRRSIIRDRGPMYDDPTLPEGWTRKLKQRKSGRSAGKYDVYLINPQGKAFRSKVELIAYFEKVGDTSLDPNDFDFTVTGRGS

Binder	Kd [µM]
B1	3.8 ± 0.7
B2	2.8 ± 0.2
